Data on seven molecules can be found in patent US20160075795A1 (Hoffmann-La Roche, published 2016).

The target of test [1] is T1, membrane-bound human carcinoembryonic antigen (CEA) (human, UniProt P06731 35-685, GPI anchor at the C-terminus of the mature chain; heavily N-glycosylated. Neither can be carried in the letters.).
T1 construct: Target of the flow cytometry experiments; also called CEACAM-5; CD66e
T1 sequence: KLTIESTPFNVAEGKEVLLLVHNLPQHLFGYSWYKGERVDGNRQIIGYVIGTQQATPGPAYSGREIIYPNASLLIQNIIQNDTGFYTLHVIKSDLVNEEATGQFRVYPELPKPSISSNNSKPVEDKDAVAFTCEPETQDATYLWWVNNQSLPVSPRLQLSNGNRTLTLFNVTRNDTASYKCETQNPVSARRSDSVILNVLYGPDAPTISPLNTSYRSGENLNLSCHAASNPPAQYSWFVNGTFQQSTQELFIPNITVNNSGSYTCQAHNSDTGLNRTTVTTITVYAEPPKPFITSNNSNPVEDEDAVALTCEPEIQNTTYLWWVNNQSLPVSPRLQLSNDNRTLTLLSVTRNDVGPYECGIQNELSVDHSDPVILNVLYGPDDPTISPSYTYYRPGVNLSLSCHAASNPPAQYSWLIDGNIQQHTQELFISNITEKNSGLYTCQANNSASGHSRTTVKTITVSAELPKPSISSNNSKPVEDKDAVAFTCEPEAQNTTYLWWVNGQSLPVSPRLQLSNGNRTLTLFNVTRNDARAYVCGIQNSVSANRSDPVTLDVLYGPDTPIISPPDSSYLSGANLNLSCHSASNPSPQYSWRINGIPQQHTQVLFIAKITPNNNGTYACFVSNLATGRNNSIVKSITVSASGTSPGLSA
As to the kind of experiment: flow cytometry on MKN45 target cells, antibodies as IgG [top panel]. (In flow cytometry, cells or beads pass a laser one at a time.)

In test [2] the target is T2, huNABA-avi-his (human, biotinylated in vivo at the avi tag).
T2 construct: immobilized on the Biacore chip; also called NABA-avi-his reagent; N-A1-B3-A2
T2 chain: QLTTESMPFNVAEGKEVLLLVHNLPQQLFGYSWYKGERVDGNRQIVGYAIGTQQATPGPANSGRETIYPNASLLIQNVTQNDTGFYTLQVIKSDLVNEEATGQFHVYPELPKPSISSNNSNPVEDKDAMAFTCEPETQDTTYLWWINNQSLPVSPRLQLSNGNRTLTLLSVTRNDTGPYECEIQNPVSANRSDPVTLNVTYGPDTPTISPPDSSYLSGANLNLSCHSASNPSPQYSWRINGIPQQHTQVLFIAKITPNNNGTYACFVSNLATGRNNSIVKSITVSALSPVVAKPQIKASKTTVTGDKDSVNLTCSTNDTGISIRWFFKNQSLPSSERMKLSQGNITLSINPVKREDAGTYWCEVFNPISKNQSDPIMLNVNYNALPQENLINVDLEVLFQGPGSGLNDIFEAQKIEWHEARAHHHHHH
The test can be described thus: SPR (Biacore), immobilized NABA-avi-his; bivalent affinity column (bivalent construct not described). A general note: SPR reads the build-up and loss of mass on a sensor chip optically.

For test [3], the target named is T2, huNABA-avi-his. The test can be described thus: SPR (Biacore); antigen not given, taken as huNABA-avi-his.
Test [4] has as its target T2, huNABA-avi-his. As to the kind of experiment: SPR (Biacore), Fab over immobilized NABA-avi-his; monovalent affinity column. The method, then:
For the exact analysis of the kinetic parameters, Fabs were purified from bacterial cultures. A 500 ml culture was inoculated and induced with 1 mM IPTG at an OD600 0.9. Bacteria were incubated at 25° C. overnight and harvested by centrifugation. After the incubation of the resuspended pellet for 20 min in 25 ml PPB buffer (30 mM Tris-HCl pH8, 1 mM EDTA, 20% sucrose), bacteria were centrifuged again and the supernatant was harvested. This incubation step was repeated once with 25 ml of a 5 mM MgSO₄ solution. The supernatants of both incubation steps were pooled, filtered and loaded on a IMAC column (His gravitrap, GE Healthcare). Subsequently, the column was washed with 40 volumes. After the elution (500 mM NaCl, 500 mM Imidazole, 20 mM NaH₂PO₄ pH 7.4) the eluate was re-buffered using PD 10 columns (GE Healthcare). The kinetic parameters of the purified Fabs were then studied by SPR-analysis in a dilution row that ranged from 200 nM to 6.25 nM.
Table 11, below, summarizes the affinity constants of the various affinity matured antibody sequences. The parental antibody PR1A3 is listed as well as several light chain and heavy chain combinations of matured and non matured sequences. All values were obtained by Biacore technology by measuring the association (kₒₙ) and dissociation (koff) rate constants of the various soluble antibody constructs in Fab format on a Biacore chip with immobilized NABA-avi-his reagent (SEQ ID NO 158) as the antigen. The affinity constant is labeled with KD.

The target of test [5] is T1, membrane-bound human carcinoembryonic …. The test can be described thus: flow cytometry on CEA-positive MKN45 target cells, antibodies as IgG [bottom panel].

B1: CH7A / CL1A rH11 antibody (parent heavy chain with affinity matured light chain) (antibody, human IgG1, V domains shown)
VH: QVQLVQSGSELKKPGASVKVSCKASGYTFTEFGMNWVRQAPGQGLEWMGWINTKTGEATYVEEFKGRFVFSLDTSVSTAYLQISSLKAEDTAVYYCARWDFYDYVEAMDYWGQGTTVTVSS
VL: DIQMTQSPSSLSASVGDRVTITCKASQTVSANVAWYQQKPGKAPKLLIYLASYRYRGVPSRFSGSGSGTDFTLTISSLQPEDFATYYCHQYYTYPLFTFGQGTKLEIKR
notes: also called CLA1 rH11
For the molecule B1, the “EC50 (read off the curve)” value in test [1] is ~0.6 mg/L.

B2: 1C8 Fab (hc/wt) (Fab, V domains shown)
VH: QVQLVQSGSELKKPGASVKVSCKASGYTFTEFGMNWVRQAPGQGLEWMGWINTKTGEATYVEEFKGRFVFSLDTSVSTAYLQISSLKAEDTAVYYCARWDFYHYVEAMDYWGQGTTVTVSS
VL: DIQMTQSPSSLSASVGDRVTITCKASQNVGTNVAWYQQKPGKAPKLLIYSASYRYSGVPSRFSGSGSGTDFTLTISSLQPEDFATYYCHQYYTYPLFTFGQGTKLEIK
notes: Fab format
In the case of B2, the Kd in test [2] was 0.000693 µM; in test [3], 0.586 µM; in test [4] it was 0.586 µM. Moreover, the koff in test [2] came out at 0.000324 s⁻¹; in test [4], 0.0076 s⁻¹. The results for the on-rate (kon) in test [2] and in test [4] were 467000 M⁻¹ s⁻¹ and 12900 M⁻¹ s⁻¹, respectively.

B3: Affinity Matured CDRH-3 construct with CDR-H3 SEQ ID NO:34 (WDFAYYFQTMDY) (Fab, V domains shown)
VH: QVQLVQSGSELKKPGASVKVSCKASGYTFTEFGMNWVRQAPGQGLEWMGWINTKTGEATYVEEFKGRFVFSLDTSVSTAYLQISSLKAEDTAVYYCARWDFAYYFQTMDYWGQGTTVTVSS
VL: DIQMTQSPSSLSASVGDRVTITCKASQNVGTNVAWYQQKPGKAPKLLIYSASYRYSGVPSRFSGSGSGTDFTLTISSLQPEDFATYYCHQYYTYPLFTFGQGTKLEIK
B3: the Kd in test [3] was found to be 0.044 µM.

B4: humanized PR1A3 antibody comprising heavy chain variable region construct CH7A and light chain variable region construct CL1A (antibody, V domains shown)
VH: QVQLVQSGSELKKPGASVKVSCKASGYTFTEFGMNWVRQAPGQGLEWMGWINTKTGEATYVEEFKGRFVFSLDTSVSTAYLQISSLKAEDTAVYYCARWDFYDYVEAMDYWGQGTTVTVSS
VL: DIQMTQSPSSLSASVGDRVTITCKASQNVGTNVAWYQQKPGKAPKLLIYSASYRYSGVPSRFSGSGSGTDFTLTISSLQPEDFATYYCHQYYTYPLFTFGQGTKLEIK
notes: also called CH7A CL1A; CH7A, CL1A
Take B4: the “EC50 (read off the curve)” value in test [5] is ~0.7 mg/L.

B5: Affinity Matured CDRH-3 construct with CDR-H3 SEQ ID NO:35 (WDFAYYLEAMDY) (Fab, V domains shown)
VH: QVQLVQSGSELKKPGASVKVSCKASGYTFTEFGMNWVRQAPGQGLEWMGWINTKTGEATYVEEFKGRFVFSLDTSVSTAYLQISSLKAEDTAVYYCARWDFAYYLEAMDYWGQGTTITVSS
VL: DIQMTQSPSSLSASVGDRVTITCKASQNVGTNVAWYQQKPGKAPKLLIYSASYRYSGVPSRFSGSGSGTDFTLTISSLQPEDFATYYCHQYYTYPLFTFGQGTKLEIK
In test [3], B5 returned a Kd of 0.069 µM.

B6: H3 Full (5) 19 Fab (hc/wt) (Fab, V domains shown)
VH: QVQLVQSGSELKKPGASVKVSCKASGYTFTEFGMSWVRQAPGQGLEWMGWINTKTGEATYVEEFKGRFVFSLDTSVSTAYLQISSLKAEDTAVYYCARWDAFEYVKALDYWGQGTTVTVSS
VL: DIQMTQSPSSLSASVGDRVTITCKASQNVGTNVAWYQQKPGKAPKLLIYSASYRYSGVPSRFSGSGSGTDFTLTISSLQPEDFATYYCHQYYTYPLFTFGQGTKLEIK
In test [2], B6 showed a Kd of 0.00019 µM, a koff of 0.000175 s⁻¹ and an association rate constant (kon) of 902000 M⁻¹ s⁻¹.

B7: Affinity Matured CDRH-3 construct with CDR-H3 SEQ ID NO:33 (WDFAHYFQTMDY) (Fab, V domains shown)
VH: QVQLVQSGSELKKPGASVKVSCKASGYTFTEFGMNWVRQAPGQGLEWMGWINTKTGEATYVEEFKGRFVFSLDTSVSTAYLQISSLKAEDTAVYYCARWDFAHYFQTMDYWGQGTTVTVSS
VL: DIQMTQSPSSLSASVGDRVTITCKASQNVGTNVAWYQQKPGKAPKLLIYSASYRYSGVPSRFSGSGSGTDFTLTISSLQPEDFATYYCHQYYTYPLFTFGQGTKLEIK
Take B7: the Kd in test [3] was 0.059 µM.

The term EC50 (read off the curve) denotes the midpoint of the concentration-response curve. Read a high EC50 (read off the curve) as lower potency in that assay. In general, koff refers to the rate constant with which the complex falls apart. In general, kon refers to a measure of how fast the partners come together.
